Laboratory results published in the supplement of paper PMC10567573.

B1: PTPRD (parent)
chain: PVVSMDLDPQPITDEEEGLIWVVG
B2: C9orf9 (parent)
chain: TKHKCRQLTKASLKPRGCSKPPWR
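Further: lentivirally expressed fusions sorted by FACS into six bins by GFP to DsRed ratio, PSI derived from sequencing read proportions per bin multiplied by bin number.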

Variants of: B1
Assay: protein stability index of a GFP-peptide fusion (GPS, HEK-293T) (PSI 1-6); higher = more stable
Details: c terminus: a fixed tail appended
PVVSMDLDPQPITDEEEGLIWVVH [G24H] showed a protein stability index of 3.87. Work on PVVSMDLDPQPITDEEEGLIWVVI [G24I] yielded a protein stability index of 1.54. With PVVSMDLDPQPITDEEEGLIWVVE [G24E] the protein stability index was 3.77. In the case of PVVSMDLDPQPITDEEEGLSWVVG [I20S], the protein stability index is reported as 4.64. Variant PVVSMDLDPQPITDEEEGLKWVVG [I20K] has a protein stability index of 4.64. Variant PVVSMDLDPQPITDEEEGLHWVVG [I20H] has a protein stability index of 4.32. In the case of PVVSMDLDPQPITDEEEGLPWVVG [I20P], the protein stability index is reported as 5.16. For PVVSMDLDPQPITDEEEGLEWVVG [I20E], the protein stability index was 5.35. Work on PVVSMDLDPQPITDEEEGLDWVVG [I20D] yielded a protein stability index of 4.8. Variant PVVSMDLDPQPITDEEEGLVWVVG [I20V] has a protein stability index of 4.87. With PVVSMDLDPQPITDEEEGLLWVVG [I20L] the protein stability index was 2.99. For PVVSMDLDPQPITDEEEGLNWVVG [I20N], the protein stability index was 4.31. Work on PVVSMDLDPQPITDEEEGLQWVVG [I20Q] yielded a protein stability index of 4.95. Work on PVVSMDLDPQPITDEEEGLGWVVG [I20G] yielded a protein stability index of 4.92. PVVSMDLDPQPITDEEEDLIWVVG [G18D] gave a protein stability index of 4.59. For PVVSMDLDPQPITDEEEMLIWVVG [G18M], the protein stability index was 2. Work on PVVSMDLDPQPITDEEELLIWVVG [G18L] yielded a protein stability index of 3.16. With PVVSMDLDPQPITDEEESLIWVVG [G18S] the protein stability index was 3.98. For PVVSMDLDPQPITDEEEELIWVVG [G18E], the protein stability index was 4.22. PVVSMDLDPQPITDEEEKLIWVVG [G18K] showed a protein stability index of 3.72. PVVSMDLDPQPITDEEERLIWVVG [G18R] showed a protein stability index of 3.28. For PVVSMDLDPQPITDEEEHLIWVVG [G18H], the protein stability index was 3.52. Variant PVVSMDLDPQPITDEEENLIWVVG [G18N] has a protein stability index of 4.42. PVVSMDLDPQPITDEEECLIWVVG [G18C] gave a protein stability index of 2.63. Work on PVVSMDLDPQPITDEEEPLIWVVG [G18P] yielded a protein stability index of 3.19. In the case of PVVSMDLDPQPITDEEEYLIWVVG [G18Y], the protein stability index is reported as 2.27. Variant PVVSMDLDPQPITDEEEQLIWVVG [G18Q] has a protein stability index of 3.37. PVVSMDLDPQPITDSEEGLIWVVG [E15S] gave a protein stability index of 2.9. Variant PVVSMDLDPQPITDPEEGLIWVVG [E15P] has a protein stability index of 3.19. Variant PVVSMDLDPQPITDQEEGLIWVVG [E15Q] has a protein stability index of 3.77. For PVVSMDLDPQPITDNEEGLIWVVG [E15N], the protein stability index was 3.67. With PVVSMDLDPQPITDDEEGLIWVVG [E15D] the protein stability index was 2.31. Variant PVVSMDLDPQPITDGEEGLIWVVG [E15G] has a protein stability index of 3.21. For PVVSMDLDPQPITDKEEGLIWVVG [E15K], the protein stability index was 3.16. In the case of PVVSMDLDPQPITDWEEGLIWVVG [E15W], the protein stability index is reported as 1.61. PVVSMDLDPQPITDREEGLIWVVG [E15R] showed a protein stability index of 3.57. For PVVSMDLDPQPITDCEEGLIWVVG [E15C], the protein stability index was 3.25. With PVVSMDLDPQPITDTEEGLIWVVG [E15T] the protein stability index was 2.33. With PVVSMDLDPQPITDEFEGLIWVVG [E16F] the protein stability index was 1.07. PVVSMDLDPQPITDEQEGLIWVVG [E16Q] gave a protein stability index of 3.79. PVVSMDLDPQPITDEYEGLIWVVG [E16Y] showed a protein stability index of 2.79. In the case of PVVSMDLDPQPITDETEGLIWVVG [E16T], the protein stability index is reported as 2.87. With PVVSMDLDPQPITDECEGLIWVVG [E16C] the protein stability index was 1.94. PVVSMDLDPQPITDEWEGLIWVVG [E16W] gave a protein stability index of 2.27. In the case of PVVSMDLDPQPITDEVEGLIWVVG [E16V], the protein stability index is reported as 1.5. PVVSMDLDPQPITDEAEGLIWVVG [E16A] showed a protein stability index of 3.22. Work on PVVSMDLDPQPITDEDEGLIWVVG [E16D] yielded a protein stability index of 4.08. Work on PVVSMDLDPQPITDEHEGLIWVVG [E16H] yielded a protein stability index of 3.2. PVVSMDLDPQPITDESEGLIWVVG [E16S] showed a protein stability index of 3.36. For PVVSMDLDPQPITDEPEGLIWVVG [E16P], the protein stability index was 2.79.

Variants of: B2
Assay: as above
Details: c terminus: a fixed tail appended
Variant RKHKCRQLTKASLKPRGCSKPPWR [T1R] has a protein stability index of 3.56. Variant YKHKCRQLTKASLKPRGCSKPPWR [T1Y] has a protein stability index of 2.09. Variant FKHKCRQLTKASLKPRGCSKPPWR [T1F] has a protein stability index of 3.6. IKHKCRQLTKASLKPRGCSKPPWR [T1I] gave a protein stability index of 2.59. KKHKCRQLTKASLKPRGCSKPPWR [T1K] gave a protein stability index of 2.62. Work on AKHKCRQLTKASLKPRGCSKPPWR [T1A] yielded a protein stability index of 3.08. In the case of SKHKCRQLTKASLKPRGCSKPPWR [T1S], the protein stability index is reported as 2.96. Work on NKHKCRQLTKASLKPRGCSKPPWR [T1N] yielded a protein stability index of 3.18. With DKHKCRQLTKASLKPRGCSKPPWR [T1D] the protein stability index was 3.22. MKHKCRQLTKASLKPRGCSKPPWR [T1M] showed a protein stability index of 2.64. With WKHKCRQLTKASLKPRGCSKPPWR [T1W] the protein stability index was 1.77. With EKHKCRQLTKASLKPRGCSKPPWR [T1E] the protein stability index was 2.52. For QKHKCRQLTKASLKPRGCSKPPWR [T1Q], the protein stability index was 2.46. CKHKCRQLTKASLKPRGCSKPPWR [T1C] showed a protein stability index of 2.45. For GKHKCRQLTKASLKPRGCSKPPWR [T1G], the protein stability index was 3.17. In the case of LKHKCRQLTKASLKPRGCSKPPWR [T1L], the protein stability index is reported as 2.44. In the case of PKHKCRQLTKASLKPRGCSKPPWR [T1P], the protein stability index is reported as 3.06. In the case of TKKKCRQLTKASLKPRGCSKPPWR [H3K], the protein stability index is reported as 3.09. Work on TKPKCRQLTKASLKPRGCSKPPWR [H3P] yielded a protein stability index of 3.03. TKFKCRQLTKASLKPRGCSKPPWR [H3F] gave a protein stability index of 2.27. In the case of TKSKCRQLTKASLKPRGCSKPPWR [H3S], the protein stability index is reported as 3.02. For TKDKCRQLTKASLKPRGCSKPPWR [H3D], the protein stability index was 3.12. For TKYKCRQLTKASLKPRGCSKPPWR [H3Y], the protein stability index was 3.08. Work on TKRKCRQLTKASLKPRGCSKPPWR [H3R] yielded a protein stability index of 3.11. In the case of TKCKCRQLTKASLKPRGCSKPPWR [H3C], the protein stability index is reported as 1.44. In the case of TKEKCRQLTKASLKPRGCSKPPWR [H3E], the protein stability index is reported as 2.77. Work on TKWKCRQLTKASLKPRGCSKPPWR [H3W] yielded a protein stability index of 2.42. Work on TKTKCRQLTKASLKPRGCSKPPWR [H3T] yielded a protein stability index of 2.83. In the case of TGHKCRQLTKASLKPRGCSKPPWR [K2G], the protein stability index is reported as 3.88. TMHKCRQLTKASLKPRGCSKPPWR [K2M] showed a protein stability index of 2.16. Variant TDHKCRQLTKASLKPRGCSKPPWR [K2D] has a protein stability index of 3.81. In the case of TYHKCRQLTKASLKPRGCSKPPWR [K2Y], the protein stability index is reported as 2.1. For TSHKCRQLTKASLKPRGCSKPPWR [K2S], the protein stability index was 4.18. With TPHKCRQLTKASLKPRGCSKPPWR [K2P] the protein stability index was 4.64. For TTHKCRQLTKASLKPRGCSKPPWR [K2T], the protein stability index was 2.27. TNHKCRQLTKASLKPRGCSKPPWR [K2N] gave a protein stability index of 2.78. In the case of TWHKCRQLTKASLKPRGCSKPPWR [K2W], the protein stability index is reported as 2.57. In the case of TAHKCRQLTKASLKPRGCSKPPWR [K2A], the protein stability index is reported as 1.36. For TIHKCRQLTKASLKPRGCSKPPWR [K2I], the protein stability index was 1.64. In the case of TCHKCRQLTKASLKPRGCSKPPWR [K2C], the protein stability index is reported as 2.68. Work on TKHACRQLTKASLKPRGCSKPPWR [K4A] yielded a protein stability index of 2.94. Variant TKHGCRQLTKASLKPRGCSKPPWR [K4G] has a protein stability index of 2.83. Work on TKHFCRQLTKASLKPRGCSKPPWR [K4F] yielded a protein stability index of 1.82. Work on TKHCCRQLTKASLKPRGCSKPPWR [K4C] yielded a protein stability index of 1.91.
